Consider 1 substance from patent US20030133971.

This data set has as its system recombinant SDI-1 protein.

For the substance CDK2 (kinase assays of Example 11), the “phosphorylation of histone H1” value is listed as “The recombinant SDI-1 protein of the present invention inhibits the phosphorylation of histone H1 by CDK2”.
